In patent US20190249188A1 (WHITEHEAD INSTITUTE FOR BIOMEDICAL RESEARCH, published 2019):

Target: the molecule itself
Test: X-ray crystallography, BAR/acetyl-CoA and BAR/CoA/phosphinothricin complexes
Description: BAR protein was incubated with 1 mM acetyl-CoA for >2 hour prior to setting crystal trays. Crystals of BAR were obtained after 3 days at 20° C. in hanging drops containing 1 μL of protein solution (7.5 mg/ml) and 1 μL of reservoir solution (0.18 M calcium acetate, 0.1 M Tris-HCl pH 7, 18% (w/v) PEG 3000, 0.2% N-nonyl β-D-glucopyranoside, 1 mM acetyl-CoA). Several crystals were soaked in reservoir solution supplemented with 30 mM L-phosphinothricin for 30-60 min before freezing. Crystals were frozen in reservoir solution supplemented with 15% ethylene glycol. […] Co-crystallization screens and soaking experiments were performed using aminoadipate and tryptophan at final concentrations between 5-30 mM. However, we could not identify electron density supporting the presence of these substrates within the resolved crystal structures.
X-ray diffraction data were collected on the 24-ID-C beam line of the Structural Biology Center at the Advanced Photon Source (Argonne National Laboratory) equipped with a Pixel Array Detector (Pilatus-6MF). […] Initial phases were determined by molecular replacement using Phaser under Phenix (Adams, P. D. et al., Acta Crystallographica. Section D, Biological Crystallo. 66, 213-221, (2010)). […]

B1: Wildtype bialaphos resistance (BAR) protein from Streptomyces hygroscopicus (enzyme)
chain: MSPERRPADIRRATEADMPAVCTIVNHYIETSTVNFRTEPQEPQEWTDDLVRLRERYPWLVAEVDGEVAGIAYAGPWKARNAYDWTAESTVYVSPRHQRTGLGSTLYTHLLKSLEAQGFKSVVAVIGLPNDPSVRMHEALGYAPRGMLRAAGFKHGNWHDVGFWQLDFSLPVPPRPVLPVTEI
notes: the entries describe its self-association into a homodimer in the crystal; Expressed in E. coli from pProEX Hta as 6xHis-BAR; Crystallised with acetyl-CoA, or with CoA and phosphinothricin; also called WT BAR; wild-type BAR
binding result: binds
